{"source": "paper PMC5769602", "about": "“Functional assays for the assessment of the pathogenicity of variants of GOSR2, an ER-to-Golgi SNARE involved in progressive myoclonus epilepsies” (Disease Models & Mechanisms, 2017)", "key": {"[1]": {"target": "T1, Sed5 211-320 (SNARE domain) (yeast, UniProt Q01590 211-320)", "T1 construct": "Sed5, yeast ER-to-Golgi Qa-SNARE, SNARE domain, residues 211-320; also called Qa-SNARE; source: E. coli BL21 (DE3), purified (Ni2+-NTA, ion exchange)", "T1 sequence (looked up)": "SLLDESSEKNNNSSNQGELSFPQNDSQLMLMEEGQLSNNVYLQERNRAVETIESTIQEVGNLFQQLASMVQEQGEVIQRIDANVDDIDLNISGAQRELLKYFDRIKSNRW", "assay": "SEC; quaternary SNARE complexes assembled from equal amounts of purified Sed5 (211-320), Bet1 (1-118), Sec22 (126-186) and one Bos1 (151-221) variant, incubated overnight; Superdex 75, PBS with 200 mM NaCl", "conditions": "both partners purified"}, "Bet1 1-118 [2]": {"target": "T2, Bet1 1-118 (yeast, UniProt P22804 1-118)", "T2 construct": "Bet1, yeast ER-to-Golgi Qc-SNARE, residues 1-118 (not only the SNARE domain); also called Qc-SNARE; source: E. coli BL21 (DE3), purified (Ni2+-NTA, ion exchange)", "T2 sequence (looked up)": "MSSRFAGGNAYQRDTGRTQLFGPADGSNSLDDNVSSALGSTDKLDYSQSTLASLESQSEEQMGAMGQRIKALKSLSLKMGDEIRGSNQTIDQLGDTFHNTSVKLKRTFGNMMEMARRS", "assay": "SEC; quaternary SNARE complexes assembled from equal amounts of purified Sed5 (211-320), Bet1 (1-118), Sec22 (126-186) and one Bos1 (151-221) variant, incubated overnight; Superdex 75, PBS with 200 mM NaCl", "conditions": "both partners purified"}, "[3]": {"target": "the molecule itself", "assay": "SEC; individual purified SNARE domains of the Bos1 variants (oligomeric state of single proteins); Superdex 75, PBS with 200 mM NaCl"}, "Bet1 1-118 [4]": {"target": "T2, Bet1 1-118", "assay": "fluorescence polarisation; fluorescence anisotropy over time; 500 nM OG-labelled Sec22 126-186 C131OG mixed with 2.7 uM Sed5 211-320, Bet1 1-118 and Bos1 151-221 or its mutants; PBS, 25°C", "conditions": "both partners purified"}, "[5]": {"target": "T1, Sed5 211-320 (SNARE domain)", "assay": "fluorescence polarisation; fluorescence anisotropy over time; 500 nM OG-labelled Sec22 126-186 C131OG mixed with 2.7 uM Sed5 211-320, Bet1 1-118 and Bos1 151-221 or its mutants; PBS, 25°C", "conditions": "both partners purified"}}}
{"binder": "Bos1 151-221 p.Arg196del (domain or fragment, Saccharomyces cerevisiae, UniProt P25385 151-221, looked up, Bos1, Saccharomyces cerevisiae, SNARE domain, residues 151-221, with arginine 196 deleted (orthologous to GOSR2 p.Lys164del); also called Bos1 p.Arg196del; source: E. coli BL21 (DE3), purified (Ni2+-NTA, ion exchange)) LYQGLQKEQSVFERGNAQLDYILEMGQQSFENIVEQNKILSKVQDMSNGLRTLGVSEQTITSINKRVFKD", "values": [{"measurement": "binding result", "setting": "[1]", "result": "binds"}, {"measurement": "binding result", "setting": "Bet1 1-118 [2]", "result": "binds"}, {"measurement": "binding result", "setting": "[3]", "result": "binds"}]}
{"binder": "Bos1 151-221 wild type (SNARE domain) (domain or fragment, Saccharomyces cerevisiae, UniProt P25385 151-221, looked up, Bos1, Saccharomyces cerevisiae, SNARE domain, residues 151-221; Forms homo-oligomers of unstated size as the isolated SNARE domain; also called Bos1 wt; wild-type Bos1; source: E. coli BL21 (DE3), purified (Ni2+-NTA, ion exchange)) LYQGLQKEQSVFERGNAQLDYILEMGQQSFENIVEQNKILSKVQDRMSNGLRTLGVSEQTITSINKRVFKD", "values": [{"measurement": "binding result", "setting": "Bet1 1-118 [4]", "result": "binds"}, {"measurement": "binding result", "setting": "[1]", "result": "binds"}, {"measurement": "binding result", "setting": "[3]", "result": "binds"}]}
{"binder": "Bos1 151-221 p.Gly176Trp (domain or fragment, Saccharomyces cerevisiae, UniProt P25385 151-221, looked up, Bos1, Saccharomyces cerevisiae, SNARE domain, residues 151-221, with Gly176Trp (orthologous to GOSR2 p.Gly144Trp); also called Bos1 p.Gly176Trp; source: E. coli BL21 (DE3), purified (Ni2+-NTA, ion exchange)) LYQGLQKEQSVFERGNAQLDYILEMWQQSFENIVEQNKILSKVQDRMSNGLRTLGVSEQTITSINKRVFKD", "values": [{"measurement": "binding result", "setting": "[5]", "result": "binds"}, {"measurement": "binding result", "setting": "Bet1 1-118 [4]", "result": "binds"}]}
{"binder": "Bos1 151-221 p.Gly176Asp (domain or fragment, Saccharomyces cerevisiae, UniProt P25385 151-221, looked up, Bos1, Saccharomyces cerevisiae, SNARE domain, residues 151-221, with the designed Gly176Asp mutation; also called Bos1 p.Gly176Asp; source: E. coli BL21 (DE3), purified (Ni2+-NTA, ion exchange)) LYQGLQKEQSVFERGNAQLDYILEMDQQSFENIVEQNKILSKVQDRMSNGLRTLGVSEQTITSINKRVFKD", "values": [{"measurement": "binding result", "setting": "[1]", "result": "binds"}, {"measurement": "binding result", "setting": "Bet1 1-118 [2]", "result": "binds"}, {"measurement": "binding result", "setting": "[3]", "result": "binds"}]}
